In PMC8633019 (2021):

Biological target: SM α-actin (Homo sapiens, UniProt P62736)
Test: TIRF microscopy polymerization assay

Kd: 3.3 µM
B1: MRTF-A (protein)
chain: MPPLKSPAAFHEQRRSLERARTEDYLKRKIRSRPERSELVRMHILEETSAEPSLQAKQLKLKRARLADDLNEKIAQRPGPMELVEKNILPVESSLKEAIIVGQVNYPKVADSSSFDEDSSDALSPEQPASHESQGSVPSPLEARVSEPLLSATSASPTQVVSQLPMGRDSREMLFLAEQPPLPPPPLLPPSLTNGTTIPTAKSTPTLIKQSQPKSASEKSQRSKKAKELKPKVKKLKYHQYIPPDQKQDRGAPPMDSSYAKILQQQQLFLQLQILNQQQQQHHNYQAILPAPPKSAGEALGSSGTPPVRSLSTTNSSSSSGAPGPCGLARQNSTSLTGKPGALPANLDDMKVAELKQELKLRSLPVSGTKTELIERLRAYQDQISPVPGAPKAPAATSILHKAGEVVVAFPAARLSTGPALVAAGLAPAEVVVATVASSGVVKFGSTGSTPPVSPTPSERSLLSTGDENSTPGDTFGEMVTSPLTQLTLQASPLQILVKEEGPRAGSCCLSPGGRAELEGRDKDQMLQEKDKQIEALTRMLRQKQQLVERLKLQLEQEKRAQQPAPAPAPLGTPVKQENSFSSCQLSQQPLGPAHPFNPSLAAPATNHIDPCAVAPGPPSVVVKQEALQPEPEPVPAPQLLLGPQGPSLIKGVAPPTLITDSTGTHLVLTVTNKNADSPGLSSGSPQQPSSQPGSPAPAPSAQMDLEHPLQPLFGTPTSLLKKEPPGYEEAMSQQPKQQENGSSSQQMDDLFDILIQSGEISADFKEPPSLPGKEKPSPKTVCGSPLAAQPSPSAELPQAAPPPPGSPSLPGRLEDFLESSTGLPLLTSGHDGPEPLSLIDDLHSQMLSSTAILDHPPSPMDTSELHFVPEPSSTMGLDLADGHLDSMDWLELSSGGPVLSLAPLSTTAPSLFSTDFLDGHDLQLHWDSCL
